Reference: patent WO2021032966A1

Biological target: Ab42 oligomers (formed during the in vitro aggregation reaction of Ab42)
Test: time-course indirect ELISA on samples of the Ab42 aggregation reaction

Ab42 oligomers (formed during the in vitro aggregation reaction of Ab42), sequence (peptide, as listed by the source): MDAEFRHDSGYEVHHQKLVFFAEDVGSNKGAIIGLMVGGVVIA

B1: DesAb-O (VHH)
VHH: EVQLVESGGGLVQPGGSLRLSCAASGFNIKDTYIGWVRRAPGKGEEWVASIYPTNGYTRYADSVKGRFTISADTSKNTAYLQMNSLRAEDTAVYYCAAGSESAFGRAEEEAAAWGQGTLVTVSS
fold of ELISA absorbance at 1 hour of incubation over the initial time of aggregation: 3 fold
